Results published in article PMC6281582.

Target: FOXO3a (UniProt O43524)
Experiment: IP of FOXO3a, anti-Flag blot for SirT6
Conditions: reference: WT-SirT6; sites S338

binding against the reference: lost
Substance: SirT6 (from UniProt Q8N6T7) S338A
